Source: US7449563B2, “Methods and compositions for destabilizing microtubules” (Academia Sinica, priority 2003, dated 2008)
No end group written: not given here.

Columns and labels:
[1] = tested on: HeLa cells; test: Cell-based assay for CPAP activity: microtubule reassembly in cold-treated transfected HeLa cells; parameters: species or system human; details: transiently transfected HeLa cells
Description: Cell Culture and Transfection
HeLa cells were maintained in DMEM supplemented with 10% fetal bovine serum. cDNA clones encoding different portions of CPAP were subcloned, in an appropriate reading frame, into the CMV promoter-driven EGFP-C1 expression vector (Clontech, Palo Alto, Calif.). Transient transfections were performed using Lipofectamine 2000 (Invitrogen, Carlsbad, Calif.) according to the manufacturer's instructions.
Cold Treatment, Immunofluorescence and Confocal Microscopy
HeLa cells were grown on coverslips for at least 24 hr. Cold treatment was performed by incubating the cells at 4° C. for 1 hr, then replacing the cold medium with medium warmed to 30° C. and incubating the cells for 2 min at 30° C. The cells were then fixed with 1% formaldehyde for 30 min at room temperature.
The fixed cells were incubated in the presence of anti-α-tubulin monoclonal antibodies (N356, Amersham, Piscataway, N.J.) and anti-γ-tubulin polyclonal antibodies (Sigma, Saint Louis, Mo.). Bound anti-α-tubulin monoclonal antibodies (N356) were detected with Alexa 568, a Texas Red-conjugated goat anti-mouse IgG, or Alexa 647, a far-red fluorophore-conjugated goat anti-mouse IgG. Bound anti-γ-tubulin polyclonal antibodies were detected with Alexa 568 (Molecular Probes Inc.). The resulting […] signals were detected using a laser scanning confocal system (MRC 1000, Bio-Rad Laboratories, Hercules, Calif.).
The effect of various polypeptides derived from CPAP was determined by evaluating the amounts of mitotic spindle formation in the transfected cells. Decreased mitotic spindle formation indicated the presence of an activity that inhibited microtubule formation or destabilized microtubules.

[2] = biological target: T1, microtubule nucleation from purified centrosomes (bovine brain tubulin) (Bos taurus, UniProt P81947+Q6B856); test: In vitro centrosome-dependent microtubule nucleation assay; format: biochemical; details: for Inhibition of microtubule nucleation/assembly from purified centrosomes (in words): in vitro; for Effect of synthetic peptide on centrosome-dependent microtubule nucleation (in words): 20 μM or 40 μM peptide
T1 construct: containing 125 μg bovine brain tubulin (Cytoskeleton, Denver, Colo.); purchased Cytoskeleton, Denver, Colo; host or cells: bovine brain (tissue-purified)
Description: In vitro Centrosome-Dependant Microtubule Nucleation Assay
Isolation of centrosomes and microtubule nucleation tests were performed as described (Hung et al., 2000). To investigate the effect of different GST-truncated CPAP fusion proteins on microtubule nucleation, purified centrosomes (4 μl per reaction) were pre-incubated with the various truncated GST-CPAP fusion proteins or FPLC purified synthetic peptides for 10 min at 4° C. The reaction mixtures were then incubated in 65 μl RG1 buffer (80 mM PIPES, pH 6.8, 1 mM EGTA, 1 mM MgCl2, and 1 mM GTP) containing 125 μg bovine brain tubulin (Cytoskeleton, Denver, Colo.) for 4 min at 37° C.
Microtubules present in the reaction mixtures were fixed in 200 μl 1% glutaraldehyde in RG1 buffer, sedimented onto acid-treated coverslips, and subjected to immunofluoresence analysis using anti-α-tubulin monoclonal antibodies N356 (Amersham, Piscataway, N.J.) or FITC-conjugated anti-α-tubulin monoclonal antibodies (DM1A-FITC; Sigma, Saint Louis, Mo.). Truncated GST-CPAP proteins were detected using an anti-GST polyclonal antibody (Molecular Probes, Cincinnati, Ohio). The extent of microtubule assembly in each reaction was determined microscopically by comparing the extent of microtubule formation on each coverslip. Decreased microtubule formation in reactions comprising polypeptides derived from CPAP indicated the ability of such polypeptides to inhibit centrosome-dependent microtubule assembly.

T1 sequence (P81947 whole entry): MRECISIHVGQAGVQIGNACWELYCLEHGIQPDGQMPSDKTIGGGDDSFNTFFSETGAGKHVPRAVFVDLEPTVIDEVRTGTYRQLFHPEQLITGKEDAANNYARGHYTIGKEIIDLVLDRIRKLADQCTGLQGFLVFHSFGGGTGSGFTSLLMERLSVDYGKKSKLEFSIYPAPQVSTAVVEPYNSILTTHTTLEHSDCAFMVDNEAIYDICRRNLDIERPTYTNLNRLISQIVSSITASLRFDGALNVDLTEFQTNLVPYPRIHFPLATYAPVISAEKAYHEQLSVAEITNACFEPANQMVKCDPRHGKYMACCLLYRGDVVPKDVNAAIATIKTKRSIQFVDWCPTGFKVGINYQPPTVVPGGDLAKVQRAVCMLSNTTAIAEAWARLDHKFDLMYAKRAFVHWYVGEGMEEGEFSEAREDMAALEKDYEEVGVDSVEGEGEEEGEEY
T1 sequence (Q6B856 whole entry): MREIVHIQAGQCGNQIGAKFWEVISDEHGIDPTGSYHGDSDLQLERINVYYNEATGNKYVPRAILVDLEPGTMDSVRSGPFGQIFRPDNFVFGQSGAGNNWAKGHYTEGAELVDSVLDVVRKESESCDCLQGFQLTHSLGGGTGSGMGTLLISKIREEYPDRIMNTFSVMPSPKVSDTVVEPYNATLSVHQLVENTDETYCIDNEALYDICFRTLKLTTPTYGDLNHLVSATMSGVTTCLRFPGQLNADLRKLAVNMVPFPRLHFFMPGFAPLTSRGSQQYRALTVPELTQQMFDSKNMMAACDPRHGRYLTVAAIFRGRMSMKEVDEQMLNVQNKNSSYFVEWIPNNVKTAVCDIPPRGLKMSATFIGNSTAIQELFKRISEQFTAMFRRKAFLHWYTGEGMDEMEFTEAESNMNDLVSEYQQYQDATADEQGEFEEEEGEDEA

GFP-PN2-1: GFP-tagged CPAP residues 132-190 (EFKEGAYKDPLFKKLEQLKEVQQKKQEQLKRQQLEQLQRLMEEQEKLLTMVSGQCTLPG; also: GFP tag, terminus not given here; UniProt Q9HC77 132-190, looked up, fragment)
Inhibition of microtubule reassembly in cold-treated mitotic cells (in words) [1]: no significant inhibition

GST-PN2-3C: GST fusion with PN2-3C, amino acid residues 369-422 of CPAP (non-helical motif) (AKPKQPFLKRGEGLARFTNAKSKFQKGKESKLVTNQSTSEDQPLFKMDRQQLQR; also: GST tag, terminus not given here; UniProt Q9HC77 369-422, looked up, fragment)
Inhibition of microtubule nucleation/assembly from purified centrosomes (in words) [2]: less inhibition

peptide C1: synthetic peptide, amino acid residues 363-392 of CPAP (SEQ ID NO:1) (GPLPIKAKPKQPFLKRGEGLARFTNAKSKF; listed as Homo sapiens)
Effect of synthetic peptide on centrosome-dependent microtubule nucleation (in words) [2]: No effect

peptide C2: synthetic peptide, amino acid residues 393-423 of CPAP (SEQ ID NO:1) (QKGKESKLVTNQSTSEDQPLFKMDRQQLQRK; listed as Homo sapiens)
Effect of synthetic peptide on centrosome-dependent microtubule nucleation (in words) [2]: No effect

peptide H2: synthetic peptide, amino acid residues 327-362 of CPAP (SEQ ID NO:1) (IKAAIGERKQTFEDYLEEQIQLEEQELKQKQLKEAE; listed as Homo sapiens)
Effect of synthetic peptide on centrosome-dependent microtubule nucleation (in words) [2]: No effect

peptide N: synthetic peptide, amino acid residues 310-329 of CPAP (SEQ ID NO:1) (LQKHDDSSEVANIEERPIKA; listed as Homo sapiens)
Effect of synthetic peptide on centrosome-dependent microtubule nucleation (in words) [2]: No effect

B1: L353P: PN2-3 polypeptide with L353 mutated to proline (protein, listed as Homo sapiens)
chain: MFLMPTSSELNSGQNFLTQWMTNPSRAGVILNRGFPILEADKEKRAAVDISTSFPIKGTHFSDSFSFINEEDSLLEEQKLESNNPYKPQSDKSETHTAFPCIKKGPQVAACHSAPGHQEENKNDFIPDRASEFKEGAYKDPLFKKLEQLKEVQQKKQEQLKRQQLEQLQRLMEEQEKLLTMVSGQCTLPGLSLLPDDQSQKHRSPGNTTTGERATCCFPSYVYPDPTQEETYPSNILSHEQSNFCRTAHGDFVLTSKRASPNLFSEAQYQEAPVEKNNLKEENRNHPTGESILCWEKVTEQIQEANDKNLQKHDDSSEVANIEERPIKAAIGERKQTFEDYLEEQIQLEEQEPKQKQLKEAEGPLPIKAKPKQPFLKRGEGLARFTNAKSKFQKGKESKLVTNQSTSEDQPLFKMDRQQLQRKTALKNKELCADNPILKKDSKARTKSGSVTLSQKPKMLKCSNRKSLSPSGLKIQTGKKCDGQFRDQIKFENKVTSNNKENVTECPKPCDTGCTGWNKTQGKDRLPLSTGPASRLAAKSPIRETMKESESSLDVSLQKKLETWEREKEKENLELDEFLFLEQAADEISFSSNSSFVLKILERDQQICKGHRMSSTPVKAVPQKTNPADPISHCNRSEDLDHTAREKESECEVAPKQLHSLSSADELREQPCKIRKAVQKSTSENQTEWNARDDEGVPNSDSSTDSEEQLDVTIKPSTEDRERGISSREDSPQVCDDKGPFKDTRTQEDKRRDVDLDLSDKDYSSDESIMESIKHKVSEPSRSSSLSLSKMDFDDERTWTDLEENLCNHDVVLGNESTYGTPQTCYPNNEIGILDKTIKRKIAPVKRGEDLSKSRRSRSPPTSELMMKFFPSLKPKPKSDSHLGNELKLNISQDQPPGDNARSQVLREKIIELETEIEKFKAENASLAKLRIERESALEKLRKEIADFEQQKAKELARIEEFKKEEMRKLQKERKVFEKYTTAARTFPDKKEREEIQTLKQQIADLREDLKRKETKWSSTHSRLRSQIQMLVRENTDLREEIKVMERFRLDAWKRAEAIESSLEVEKKDKLANTSVRFQNSQISSGTQVEKYKKNYLPMQGNPPRRSKSAPPRDLGNLDKGQAASPREPLEPLNFPDPEYKEEEEDQDIQGEISHPDGKVEKVYKNGCRVILFPNGTRKEVSADGKTITVTFFNGDVKQVMPDQRVIYYYAAAQTTHTTYPEGLEVLHFSSGQIEKHYPDGRKEITFPDQTVKNLFPDGQEESIFPDGTIVRVQRDGNKLIEFNNGQRELHTAQFKRREYPDGTVKTVYANGHQETKYRSGRIRVKDKEGNVSMDTEL
Inhibition of microtubule nucleation/assembly from purified centrosomes (in words) [2]: showed the ability to inhibit microtubule assembly

B2: PN2-3: PN2-3 polypeptide with wild-type CPAP sequence, residues 311-422 of SEQ ID NO:1, expressed using pET vectors (protein, listed as Homo sapiens)
chain: QKHDDSSEVANIEERPIKAAIGERKQTFEDYLEEQIQLEEQELKQKQLKEAEGPLPIKAKPKQPFLKRGEGLARFTNAKSKFQKGKESKLVTNQSTSEDQPLFKMDRQQLQR
Inhibition of microtubule nucleation/assembly from purified centrosomes (in words) [2]: showed the ability to inhibit microtubule assembly

B3: GST-PN2: GST fusion polypeptide corresponding to amino acid residues 132-422 of CPAP (protein, UniProt Q9HC77 132-422, looked up, fragment)
chain: EFKEGAYKDPLFKKLEQLKEVQQKKQEQLKRQQLEQLQRLMEEQEKLLTMVSGQCTLPGLSLLPDDQSQKHRSPGNTTTGERATCCFPSYVYPDPTQEETYPSNILSHEQSNFCRTAHGDFVLTSKRASPNLFSEAQYQEAPVEKNNLKEENRNHPTGESILCWEKVTEQIQEANDKNLQKHDDSSEVANIEERPIKAAIGERKQTFEDYLEEQIQLEEQELKQKQLKEAEGPLPIKAKPKQPFLKRGEGLARFTNAKSKFQKGKESKLVTNQSTSEDQPLFKMDRQQLQR
modifications: GST tag
notes: GST fusion polypeptide corresponding to amino acid residues 132-422 of CPAP
Inhibition of microtubule nucleation/assembly from purified centrosomes (in words) [2]: inhibited
